These results are taken from patent US20240307512A1.

For assay [1], the target named is SARS-COV-2 Spike Omicron BA.1 (on pVSV-Luc-SARS-COV-2-S pseudovirus) (SARS-COV-2) (UniProt P0DTC2).
Assay [2] has as its target SARS-COV-2 Spike Omicron BA.2 (on pVSV-Luc-SARS-COV-2-S pseudovirus) (SARS-COV-2) (UniProt P0DTC2).

Regarding “ACE2 v2.4 (615)-Fc (IgG) (from UniProt Q9BYF1) (Fc fusion)”, the IC50 (read off the curve) in assay [1] was determined as 20 pM; in assay [2], 40 pM.
